Consider one molecule from patent US20100273710 (published 2010).

Assay [1] deals with T1, NOP receptor (Homo sapiens, UniProt P41146). As to the kind of experiment: competition, [3H]N/OFQ.
Assay [2] concerns the target T1, NOP receptor. The experiment in a line: competition, [3H]N/OFQ. This is another data set of the same source.
The target in the next assay is T2, DOP receptor (Homo sapiens, UniProt P41143).
T2 chain: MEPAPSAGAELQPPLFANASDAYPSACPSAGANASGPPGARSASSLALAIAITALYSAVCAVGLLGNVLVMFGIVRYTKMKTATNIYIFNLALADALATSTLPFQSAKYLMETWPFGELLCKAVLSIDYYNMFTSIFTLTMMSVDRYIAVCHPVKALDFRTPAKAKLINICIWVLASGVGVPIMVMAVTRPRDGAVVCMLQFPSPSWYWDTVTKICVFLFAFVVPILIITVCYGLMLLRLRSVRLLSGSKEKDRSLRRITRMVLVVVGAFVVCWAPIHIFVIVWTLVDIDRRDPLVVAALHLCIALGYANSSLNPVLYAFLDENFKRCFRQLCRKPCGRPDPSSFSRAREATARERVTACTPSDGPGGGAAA
As to the kind of experiment: competition, [3H]-diprenorphine.

For the next assay, the target named is MOP receptor (Homo sapiens, UniProt P35372). As to the kind of experiment: competition, [3H]-diprenorphine.
MOP receptor, sequence (P35372 whole entry): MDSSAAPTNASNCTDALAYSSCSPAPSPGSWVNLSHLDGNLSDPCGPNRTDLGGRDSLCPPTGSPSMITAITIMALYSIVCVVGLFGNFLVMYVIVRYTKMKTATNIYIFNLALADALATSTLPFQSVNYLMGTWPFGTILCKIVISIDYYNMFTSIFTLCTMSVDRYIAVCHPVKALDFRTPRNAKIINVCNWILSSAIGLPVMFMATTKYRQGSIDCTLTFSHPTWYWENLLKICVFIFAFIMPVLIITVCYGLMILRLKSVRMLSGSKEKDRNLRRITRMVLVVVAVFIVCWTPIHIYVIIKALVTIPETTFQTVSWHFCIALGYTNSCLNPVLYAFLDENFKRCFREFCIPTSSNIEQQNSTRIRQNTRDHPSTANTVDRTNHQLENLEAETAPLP

Where two headings read alike, the source gives them in different places.

T1 sequence (P41146 whole entry): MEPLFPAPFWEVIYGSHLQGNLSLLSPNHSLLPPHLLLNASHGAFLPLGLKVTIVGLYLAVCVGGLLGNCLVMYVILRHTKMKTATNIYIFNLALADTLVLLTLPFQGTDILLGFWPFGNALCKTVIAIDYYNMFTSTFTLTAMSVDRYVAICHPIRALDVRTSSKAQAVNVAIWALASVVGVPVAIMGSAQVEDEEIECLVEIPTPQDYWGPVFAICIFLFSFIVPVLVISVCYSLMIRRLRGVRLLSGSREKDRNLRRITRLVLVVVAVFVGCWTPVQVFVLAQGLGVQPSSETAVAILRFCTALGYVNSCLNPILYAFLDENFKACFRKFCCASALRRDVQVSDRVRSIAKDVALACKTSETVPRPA

B1: UFP-111 (peptide)
chain: XGGFTGXRKSARKRKNQ
modifications: [Nphe1,Aib7,Arg14,Lys15]N/OFQ-NH2; X1 = Nphe, X7 = Aib, C-terminal amide
For B1, the Ki (commonly a dissociation constant, usually derived from enzyme kinetics or from competition with a known ligand) in the assay with NOP receptor [1] was 0.178 nM; in the assay with NOP receptor [2] it was 17.8 nM; with DOP receptor, above 10000 nM; in the assay with MOP receptor, above 10000 nM.
